Data from the supplement of paper PMC10567573.

B1: TRIM29 (parent)
chain: RKCPVHGKTMELFCQTDQTCICYL
B2: NETO1 (parent)
chain: KTSLLDQLTNTSGTVIGVTSCIVI

Variants of: B1
Assay: protein stability index of a GFP-peptide fusion (GPS, HEK-293T) (PSI 1-6); higher = more stable
Details: c terminus: a fixed tail appended
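Note: lentivirally expressed fusions sorted by FACS into six bins by GFP to DsRed ratio, PSI derived from sequencing read proportions per bin multiplied by bin number.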

Variant | protein stability index
RKCPVHGKTMELFCQTDQTCICWL [Y23W] | 1.59
RKCPVHGKTMELFCQTDQTCICVL [Y23V] | 2.66
RKCPVHGKTMELFCQTDQTCICYY [L24Y] | 3.86
RKCPVHGKTMELFCQTDQTCICYR [L24R] | 4.89
RKCPVHGKTMELFCQTDQTCICYV [L24V] | 4.34
RKCPVHGKTMELFCQTDQTCICYS [L24S] | 5.39
RKCPVHGKTMELFCQTDQTCICYM [L24M] | 4.34
RKCPVHGKTMELFCQTDQTCICYE [L24E] | 4.75
RKCPVHGKTMELFCQTDQTCICYF [L24F] | 4.64
RKCPVHGKTMELFCQTDQTCICYA [L24A] | 5.02
RKCPVHGKTMELFCQTDQTCICYK [L24K] | 4.82
RKCPVHGKTMELFCQTDQTCICYG [L24G] | 5.15
RKCPVHGKTMELFCQTDQTCICYC [L24C] | 4.74
RKCPVHGKTMELFCQTDQTCICYN [L24N] | 4.57
RKCPVHGKTMELFCQTDQTCICYD [L24D] | 5.58
RKCPVHGKTMELFCQTDQTCICYQ [L24Q] | 5.07
RKCPVHGKTMELFCQTDQTCICYP [L24P] | 5.26
RKCPVHGKTMELFCQTDQTCICYT [L24T] | 5.36
RKCPVHGKTMELFCQTDQTCICYI [L24I] | 4.21
RKCPVHGKTMELFCQTDQTCICYH [L24H] | 4.59
RKCPVHGKTMELFCQTDQTCICYW [L24W] | 4.47

Variants of: B2
Assay: as above
Details: c terminus: a fixed tail appended

Variant | protein stability index
KTSLLDQLTNTSGTVIGVTSCIYI [V23Y] | 2.66
KTSLLDQLTNTSGTVIGVTSCIFI [V23F] | 2.28
KTSLLDQLTNTSGTVIGVTSCIMI [V23M] | 2.56
KTSLLDQLTNTSGTVIGVTSCIII [V23I] | 2.81
KTSLLDQLTETSGTVIGVTSCIVI [N10E] | 3.35
KTSLLDQLTWTSGTVIGVTSCIVI [N10W] | 3.97
KTSLLDQLTSTSGTVIGVTSCIVI [N10S] | 2.76
KTSLLDQLTRTSGTVIGVTSCIVI [N10R] | 2.53
KTSLLDQLTFTSGTVIGVTSCIVI [N10F] | 2.3
KTSLLDQLTVTSGTVIGVTSCIVI [N10V] | 3.24
KTSLLDQLTLTSGTVIGVTSCIVI [N10L] | 3.8
KTSLLDQLTNTSGTVIGVVSCIVI [T19V] | 2.91
KTSLLDQLTNTSGTVIGVPSCIVI [T19P] | 1.91
KTSLLDQLTNTSGTVIGVFSCIVI [T19F] | 2.52
KTSLLDQLTNTSGTVIGVESCIVI [T19E] | 2.68
KTSLLDQLTNTSGTVIGVKSCIVI [T19K] | 2.97
KTSLLDQLTNTSGTVIGVMSCIVI [T19M] | 2.5
KTSLLDQLTNTSGTVIGVCSCIVI [T19C] | 2.73
KTSLLDQLTNTSWTVIGVTSCIVI [G13W] | 3.1
KTSLLDQLTNTSFTVIGVTSCIVI [G13F] | 3.7
KTSLLDQLTNTSPTVIGVTSCIVI [G13P] | 2.94
KTSLLDQLTNTSKTVIGVTSCIVI [G13K] | 2.9
KTSLLDQLTNTSMTVIGVTSCIVI [G13M] | 3.17
KTSLLDQLTNTSYTVIGVTSCIVI [G13Y] | 3.2
KTSLLDQLTNTSRTVIGVTSCIVI [G13R] | 3.34

Variant | protein stability index
KTSLLDQLTNTSHTVIGVTSCIVI [G13H] | 2.65
KTSLLDQLTNTSTTVIGVTSCIVI [G13T] | 2.23
KTSLLDQLTNTSITVIGVTSCIVI [G13I] | 2.57
KTSLLDQLTNTSGTVITVTSCIVI [G17T] | 3.32
KTSLLDQLTNTSGTVIEVTSCIVI [G17E] | 2.69
KTSLLDQLTNTSGTVIFVTSCIVI [G17F] | 2.72
KTSLLDQLTNTSGTVINVTSCIVI [G17N] | 3.28
KTSLLDQLTNTSGTVIWVTSCIVI [G17W] | 2.9
KTSLLDQLTNTSGTVIDVTSCIVI [G17D] | 3.37
KTSLLDQLTNTSGTVIVVTSCIVI [G17V] | 2.91
KTSLLDQLTNKSGTVIGVTSCIVI [T11K] | 3.11
KTSLLDQLTNCSGTVIGVTSCIVI [T11C] | 3.13
KTSLLDQLTNDSGTVIGVTSCIVI [T11D] | 3.42
KTSLLDQLTNHSGTVIGVTSCIVI [T11H] | 3.21
KTSLLDQLTNESGTVIGVTSCIVI [T11E] | 5.03
KTSLLDQLTNGSGTVIGVTSCIVI [T11G] | 2.93
KTSLWDQLTNTSGTVIGVTSCIVI [L5W] | 3.45
KTSLHDQLTNTSGTVIGVTSCIVI [L5H] | 2.21
KTSLGDQLTNTSGTVIGVTSCIVI [L5G] | 2.97
KTSLNDQLTNTSGTVIGVTSCIVI [L5N] | 3.16
KTSLRDQLTNTSGTVIGVTSCIVI [L5R] | 3.13
KTSLFDQLTNTSGTVIGVTSCIVI [L5F] | 2.32
KTSLVDQLTNTSGTVIGVTSCIVI [L5V] | 2.59
KTSLIDQLTNTSGTVIGVTSCIVI [L5I] | 2.8
KTSLKDQLTNTSGTVIGVTSCIVI [L5K] | 2.78

Variant | protein stability index
KTSLLDQLTNTSGTVQGVTSCIVI [I16Q] | 2.94
KTSLLDQLTNTSGTVKGVTSCIVI [I16K] | 3.1
KTSLLDQLTNTSGTVWGVTSCIVI [I16W] | 2.03
KTSLLDQLTNTSGTVRGVTSCIVI [I16R] | 2.79
KTSLLDQLTNTSGTVYGVTSCIVI [I16Y] | 2.12
KTSLLDQLTNTSGTVTGVTSCIVI [I16T] | 3.23
KTSLLDQLTNTSGTVMGVTSCIVI [I16M] | 2.62
KTSLLDQLTNTSGTVSGVTSCIVI [I16S] | 3.79
KTSLLDQLTNTSGWVIGVTSCIVI [T14W] | 2.37
KTSLLDQLTNTSGFVIGVTSCIVI [T14F] | 2.82
KTSLLDQLTNTSGEVIGVTSCIVI [T14E] | 3.18
KTSLLDQLTNTSGPVIGVTSCIVI [T14P] | 2.69
KTSLLDQLTNTSGLVIGVTSCIVI [T14L] | 2.47
KTSLLDQLTNTSGTVIGVTSCIVS [I24S] | 1.94
KTSLLDQLTNTSGTVIGVTSCIVY [I24Y] | 2.55
KTSLLDQLTNTSGTVIGVTSCIVQ [I24Q] | 1.62
KTSLLDQLTNTSGTVIGVTSCIVD [I24D] | 2.54
KTSLLDQLTNTSGTVIGVTSCIVW [I24W] | 2.92
KTSLLDQLTNTSGTVIGVTSCIVE [I24E] | 2.21
KTSLLDQLTNTSGTVIGVTSCIVK [I24K] | 2.04
KTSLLDQLTNTSGTVIGVTSCIVH [I24H] | 1.99
KTSLLDMLTNTSGTVIGVTSCIVI [Q7M] | 2.37
KTSLLDCLTNTSGTVIGVTSCIVI [Q7C] | 2.94
